Here are results for 1 molecule from paper PMC4357503.

One series addresses T1, GST-Puf4p (UniProt P25339 1-888).
T1 sequence: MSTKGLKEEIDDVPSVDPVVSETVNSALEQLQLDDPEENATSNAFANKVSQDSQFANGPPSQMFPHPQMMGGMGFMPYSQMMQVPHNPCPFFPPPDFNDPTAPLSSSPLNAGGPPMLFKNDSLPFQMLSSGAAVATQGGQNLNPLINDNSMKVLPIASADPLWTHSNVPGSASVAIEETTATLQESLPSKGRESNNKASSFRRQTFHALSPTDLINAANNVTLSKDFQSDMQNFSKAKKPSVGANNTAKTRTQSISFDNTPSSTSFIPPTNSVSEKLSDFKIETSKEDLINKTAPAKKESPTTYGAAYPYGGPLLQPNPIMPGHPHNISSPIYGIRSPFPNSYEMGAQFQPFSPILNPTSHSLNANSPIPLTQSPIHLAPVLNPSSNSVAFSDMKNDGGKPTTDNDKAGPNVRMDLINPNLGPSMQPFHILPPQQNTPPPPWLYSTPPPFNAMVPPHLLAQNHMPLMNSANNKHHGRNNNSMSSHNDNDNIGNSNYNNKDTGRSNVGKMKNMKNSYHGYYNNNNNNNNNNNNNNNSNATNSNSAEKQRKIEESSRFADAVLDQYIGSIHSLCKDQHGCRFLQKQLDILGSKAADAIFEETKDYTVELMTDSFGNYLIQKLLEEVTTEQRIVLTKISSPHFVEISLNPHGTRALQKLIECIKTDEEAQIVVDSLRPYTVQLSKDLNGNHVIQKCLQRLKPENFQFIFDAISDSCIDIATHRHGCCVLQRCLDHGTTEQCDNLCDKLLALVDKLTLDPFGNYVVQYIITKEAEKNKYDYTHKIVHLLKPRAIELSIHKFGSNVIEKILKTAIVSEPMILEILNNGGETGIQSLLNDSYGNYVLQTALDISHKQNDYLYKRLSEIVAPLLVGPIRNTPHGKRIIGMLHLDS
The series can be described thus: EMSA.

Another series has as its target T2, GST-Puf1p (UniProt P47135 1-1091).
T2 sequence: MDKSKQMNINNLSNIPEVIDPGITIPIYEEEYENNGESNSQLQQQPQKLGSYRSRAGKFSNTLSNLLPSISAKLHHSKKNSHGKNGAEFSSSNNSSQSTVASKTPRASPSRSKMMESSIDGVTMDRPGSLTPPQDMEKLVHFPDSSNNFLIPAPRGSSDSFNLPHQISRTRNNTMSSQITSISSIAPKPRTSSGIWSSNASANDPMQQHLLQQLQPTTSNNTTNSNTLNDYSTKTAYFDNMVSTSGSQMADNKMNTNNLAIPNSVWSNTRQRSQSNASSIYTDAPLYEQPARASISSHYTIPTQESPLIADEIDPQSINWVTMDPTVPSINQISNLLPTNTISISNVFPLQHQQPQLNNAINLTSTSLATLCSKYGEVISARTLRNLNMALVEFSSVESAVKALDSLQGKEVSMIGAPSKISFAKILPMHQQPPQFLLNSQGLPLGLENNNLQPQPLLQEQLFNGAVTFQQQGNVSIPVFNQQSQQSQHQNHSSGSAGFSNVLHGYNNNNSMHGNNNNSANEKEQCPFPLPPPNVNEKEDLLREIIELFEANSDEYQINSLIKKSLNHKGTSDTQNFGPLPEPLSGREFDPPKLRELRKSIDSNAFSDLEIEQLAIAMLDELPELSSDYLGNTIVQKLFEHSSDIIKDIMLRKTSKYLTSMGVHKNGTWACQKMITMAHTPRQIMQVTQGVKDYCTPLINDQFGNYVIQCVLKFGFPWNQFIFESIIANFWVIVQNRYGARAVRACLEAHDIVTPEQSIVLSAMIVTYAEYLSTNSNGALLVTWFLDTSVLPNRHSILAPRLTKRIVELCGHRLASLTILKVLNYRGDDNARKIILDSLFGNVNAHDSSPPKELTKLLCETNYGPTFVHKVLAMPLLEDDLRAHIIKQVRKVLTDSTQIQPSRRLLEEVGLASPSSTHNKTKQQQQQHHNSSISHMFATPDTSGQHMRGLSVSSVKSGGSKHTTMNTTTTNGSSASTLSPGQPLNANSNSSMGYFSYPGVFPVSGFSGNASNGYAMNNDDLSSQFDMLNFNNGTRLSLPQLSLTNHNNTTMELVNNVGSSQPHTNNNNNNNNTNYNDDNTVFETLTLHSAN
The series can be described thus: EMSA.

With GUAAAGAUUGUGUAUGUAUUUAUAAGAUGAAUA (ssRNA) [YHB1 WT PRE (oWO898)], the binding result with GST-Puf4p and with GST-Puf1p was “binds” each time.
